The values below come from article doi:10.1101/2023.05.17.540984.

Read-outs that look alike come from different tables or passages of the source.

Series [1] has as its target T1, ELK1 (UniProt P19419 1-428).
T1 sequence: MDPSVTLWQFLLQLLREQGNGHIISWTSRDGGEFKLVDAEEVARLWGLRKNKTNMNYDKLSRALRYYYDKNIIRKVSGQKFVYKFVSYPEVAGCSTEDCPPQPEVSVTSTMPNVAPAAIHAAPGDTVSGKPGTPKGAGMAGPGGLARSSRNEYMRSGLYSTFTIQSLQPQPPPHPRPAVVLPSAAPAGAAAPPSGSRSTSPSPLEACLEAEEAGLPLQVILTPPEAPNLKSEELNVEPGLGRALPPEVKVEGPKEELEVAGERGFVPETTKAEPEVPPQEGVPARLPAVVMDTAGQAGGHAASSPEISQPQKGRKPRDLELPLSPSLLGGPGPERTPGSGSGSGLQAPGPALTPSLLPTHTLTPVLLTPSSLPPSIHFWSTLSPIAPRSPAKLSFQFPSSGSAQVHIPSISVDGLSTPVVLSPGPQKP
The experiment in a line: EMSA.

The target in series [2] is T1, ELK1. The series can be described thus: EMSA. The source holds these as a separate data set. Background: In EMSA bound probe runs differently from free probe, usually more slowly.

B1: rs8040749-A probe (reference allele) (dsDNA)
DNA 1: CCTGCCTTCCAGAAGTTCATG
DNA 2: CATGAACTTCTGGAAGGCAGG
For the molecule B1, in the series with ELK1 [1], the binding result is on record as “no binding”.

B2: rs8040749-G probe (centenarian allele) (dsDNA)
DNA 1: CCTGCCTTCCGGAAGTTCATG
DNA 2: CATGAACTTCCGGAAGGCAGG
For B2, the binding result in the series with ELK1 [2] is “binds”.
